# Measured values reported in a protein production outcome set (Wang et al. 2014).
# Assay: label from the status in PepcDB records
row,Sequence,protein production
1,MTLATRTVILPGGLQATLVHQPQADRAAALARVAAGSHHEPSRFPGLAHLLEHLLFYGGERYQDDDRLMGWVQRQGGSVNATTLARHSAFFFEVAADALADGVARLQEMLQAPLLLREDIQREVAVIDAEYRLIQQHEPSRREAAVRHAASAPAAFRRFQVGSADALAGDLAALQAALGDFHRTHYVARRMQLWLQGPQSLEALGELAARFAAGLAAGEPPPPAPPLRLGEFTALQLAVSSQPALWRCPLIALSDNVTLLREFLLDEAPGSLMASLRQRRLAGDVALNWLYQDRYLGWLALVFASDRPEEVDRQITHWLQALQQTTPEQQQHYYQLSRRRFQALSPLDQLRQRAFGFAPGAPPAGFADFCAALQAAPSVSLACQTVSPGEPVATQGFSLPLSRWRRRPESDPALAFAFYPQAAGDLVAKCPEKAAPLLHLPLPEEPPRLLLRPPFYCSPDQAEGLARGEQLRPLLAALRHAGGHGEWHLFDGSWQLTLQLPEPGRRPEAILQAILRQLALPVASLTPPPESIAIRHLMAQLPERLGTSGHQKGWLAALAGGSAEDAQWVARQLSLITAPVNPPMPAPAPCRRGVERLVYPGGDTALLVFIPLPDGASLAALRLLAQHCEPLFFQRLRVEQQIGYVVSCRYQRVADRDGLLMALQSPDRRAGELLRCGKDFLRQLAPMDEATFRPLQQRLAAQNRASRPPEARALSALRQEYGLPELTPQAVDALRVAEVADLAREMTRRRRRWQVLFTTGD,failed
2,MTLDPTPALSALRSGDFRTVQKLARRALKLAKGDPGWLNLAAIAESGLGRPKAALPHFQLALKLAPDFHDARRNLAQTLVILGRLDEAERHLQQLTGTNPQDAEAWALLSQAAMGRGDGDAALAAADRYVDLRPGQARGLMLRATLHGRLGDEAAALADLQQAQMAEPDNVDLLIALSLPLARADHPGAAIDVARRAVELAPRHIPARLTLAMRHVEQGDSDAAKAMYHRVLEIAPDQAEALEQLAHLNDAAENQRLAPQVQTALKTAEAGSLDKAQLHFALARIAAQSADDDGLARNLTRANATMARLMPYDAGADTRLSEALMARFAPGADCDGPGDGPAPFYVLGLPRSGTSLTEAVLGAHPVVHPLGERIAPGRLLAPLIDGGLPFDAQARAAFRKGEAASLPALPEGTRFYTDKMPENYRLVGFLLAARGDARVIHLRRDPRDVALSLWQAHLAGSALNYAYDLGAMAHRFNLYARMMAHWRAIFPDRILDLPYEELVADVTRASQRLAEWLGLVWDPEMARPERSTSQILTLSASQLRQPVHTRSVGKWRKHEAMLAPFIAGLDPGLWPELGQSGI,failed
3,MTLEIRPAVPADAEQILAFIIELADYERARHEVVTDVEGIRRSLFAEGSPTRALMCLSEGRPIGYAVYFYSYSTWLGRNGIYLEDLYVTPEYRGVGAGRRLLRELAREAVANDCGRLEWSVLDWNQPAIDFYRSIGALPQDEWVRYRLDGEALRKMAE,not failed
4,MTLELLQAQAQNCTACRLMEGRTRVVFGEGNPDAKLMIVGEGPGEEEDKTGRPFVGKAGQLLNRILEAAGIPREEVYITNIVKCRPPQNRAPLPDEAKICTDKWLLKQIELIAPQIIVPLGAVAAEFFLGEKVSITKVRGKWYEWHGIKVFPMFHPAYLLRNPSRAPGSPKHLTWLDIQEVKRALDALPPKERRPVKAVSQEPLF,not failed
5,MTLGSQHSPLFALVQETLRKRILSGAYAQGERLVEGDLAEEMGVSRIPVREALRALAAAGLVRIEPRRGASVASLSPEHARDIVEVRATLEALNARLAAQRRNPQQVADMDRAIRDGAHACERGDTAALVEQNRHFHELLGGVSTNAVLQDLMRSLRDRTALLFARNSVTRAADILDEHAGILQAVTAGDADLASLLAARHVHNAAQWYFERPVDRKAVAADTD,failed
6,MTLPQTMKAAVVHAYGAPLRIEEVKVPLPGPGQVLVKIEASGVCHTDLHAAEGDWPVKPPLPFIPGHEGVGYVAAVGSGVTRVKEGDRVGIPWLYTACGCCEHCLTGWETLCESQQNTGYSVNGGYAEYVLADPNYVGILPKNVEFAEIAPILCAGVTVYKGLKQTNARPGQWVAISGIGGLGHVAVQYARAMGLHVAAIDIDDAKLELARKLGASLTVNARQEDPVEVLQRDIGGAHGVLVTAVSNSAFGQAIGMARRGGTIALVGLPPGDFPTPIFDVVLKGLHIAGSIVGTRADLQEALDFAGEGLVKATIHPGKLDDINQILDQMRAGQIEGRIVLEM,not failed
7,MTLSIAHLGPPGTYAEQAAVLYVNWLTKSTGDEATLSPYPTISQSLHAVADGQAHLAVVPVENSIEGSVTTTLDALWQLDSLRIQLALVLPIVHTLISCASGLDKIETVYSHPQALAQCQGWLERFLPTVQIVPSNSTTEALQRLEQETTTAAIASSRAAQLYNLPILATGINDYPENCTRFWVVSQGEADAGYQTSKVPTSHTSLAFSMPANTPGALVKPLQIFAQLGINLSRIESRPTKRSLGEYLFFMDLEADVKESQMQSALAELTIHTEILKILGAYNVLPIGAFT,failed
8,MTLSSTTAPLDQPIPQATADAFCALTGDDQWIHIDPARAEAEGLAGGDTVLPGALLLSLAVGGLGKALGYPEGTRSWQRSYERVRFLRPAPVGSRLRLEARESRRRPAGTGREVVVANVSLYSDLVEAGPVMEGCFTSLLEVAVQPDTAE,failed
9,MTLSTINPMKKSRIDNIHHTQILFFSDENQIDQEAPYYDALLDLEKDYPEQIDKMKVYDKKEGWEDEIETVPTLMVVDQRHVVVKIEGCVKKKEDIIKPLQHVLSKLEHHHHHH,not failed
10,MTLTDISLAQAFISIPQDVIALDLSNNLLGSKSCVDLLVNIADCIPAGVTSLDLSSNGLRLTQVSLVTPKHVTSLNLCFNPLHEISIDGLEWLKDSLAHIQIIYLSYDMVNNMSREQRQAFRAVIPNIQTIILVDKNGKEIGPSHTAKIANLISELGGGNPEVPSLEHHHHHH,failed
11,MTLTKITAGKDDPDTGFAIATYNIHSCLGTDGAFRPDRVAQAIRALDADVIGLQEVGWALRGPSGFDQFAFLERETGYTVIPGLVRHHANAHFGNAILSRHPVESVAPLDLSLPYHSPRGGIDARIRVKGRSVRLINVHLGLIPLERRIQIRRIGLRLLDGWRGPALVCGDLNHWRRTSPAMQRLHRLLPGGVTGQTYPSALPTMMFDRILATGDLHLENHQVIRTEGTRVASDHLPLMAWFRFEGADVLSEDAA,failed
12,MTMIKGYSEKVEKIYSKLRKTEEDNLKSRREEIKDKLPKIIKIDSEISRLCLKLSTNIFKKINNRDEYIKSLKNEITNLRMERSELLVSNGYPMDYLQMHYNCSKCKDTGYIGAHKCSCYKKYLVQLYYDNSDLKSLLNENNFENFNINYYSNRKSEDEPRTPRKNMEKILSLSLNYIKNFSDSNENLLFYGNSGTGKTFLSHCIAKDLLERGFLVIYKTSADLAQELKQLQFEPNPTLEDLIINCDLLIIDDLGTEQISAFSKTCFFNLINKKLLSQKKMLISSNYNLEELTRLYSERITSRLFGDFTLCKFYGDDIRINRNLKNKKI,failed
13,MTMPHAFSRQPATHRSGRFPRSRALLLASLLAAGLASLPAWAAAPATRTAQAAPEGSSRAAVQLEKSRPRGNLLATDRTDLPAVPLSEDIMYRVLASEVSLQRGLVEPAYRTYLGLAQDTRDPRFAQRATEIAFLTRSPSQALTAARLWVELAPTSMPARQVQQLLMVATGQWSEVEPMLQAQLNKVSPGQRAEAILQLQQQMSKSNDPAGAVSALQRLTTHDAQRPETHLALARAKVVAKDNTGALSELDTALKLRPGYEDAAILAAELRADSDPDAAISGLRTFLKAAPASIDGHLALARMYLVRNQNDQARAEFEALRKIAPTDPRIPLALGLLNLQQRQYDSAEQYLKEYVAQAAKSPSLSPEPGYQGLAQVAEEKRDYAGAITWLDKIAGASNGDGDGQVALAAGIKRAQLLGKLRRIDEAQQAFDELIADTEDVPDGPRRQALMDGIRQAEVGMLMDAKAYGRARARVNDLLRTSPDSVEYTYQLSMLEEHDGHYDNMETLLRKVIDLRPGQAIGYNALGYSLADRNIRLQEAQELLEKAVSLAPDDPYIADSLGWVKYRRGDLPAATDILRKAWAAAPQAEIGAHLGEVLWQSGKQDDARKVWTEAAKLDINDTTLRETLHRFSQPLPDAPTSAN,failed
14,MTMSLIAGVAAFVLTVLAMPHFITYYKIKKIGGQQMHEDVKQHLAKAGTPTMGGTVFLVVAILISLIFNFHVFTEGHPAYGATAGILFVILIYGIIGFLDDFLKIFHQINEGLKPWQKMALQIVAGLLFYFIHVLPSGTNSLAIGGLTIQLGVFYVLFVLFWIVGFSNAVNLTDGIDGLASVSVVISLIAYGIIAFVKGELAILTIIITMIGALLGFFVFNHKPAKVFMGDVGSLSLGAMLAVISIALRVEWTLLLIGVVYVLETASVMLQVSYFKYTKRKYGEGRRIFRMTPFHHHLELGGISGKGEKWSEWKVDAFLWTIGALASSITLWMVLGNVMK,failed
15,MTNDFKKEKKEDYFVNLKAISTEVLQEKVQDNAWVIVDTRLNDAYNGWKLDGVKRGGHIKGAVDFSANWLSVYSDRKDEVLEQALKTKRIDLDKNIVLYDANGKDALVVADYLSKKGYKYLYKYDIKQWADDENLPMERYKNYQMIVPLEHHHHHH,not failed
16,MTNGGGGMSSGEGFRRRSSGEGFPAREFRWWVSGDRVFPRGFFGEGVQVGVPTVVSGEGVPAKVPGGDFSGKKVPAVVFRRVSSSDGGGRGSGGGGGGGSGLGW,failed
17,MTNGKNPKEYSRQYVDEIAERADVVGYAPAIEYSFDRYTNNPVHEKIATIHDGEKLGDDAHVEVVVVDFFKKSDKGDKCYATKRTYAVIPDSDGDGTDALVYSGSLKSVSDIEEGYVTETDFTSKTVTYAKGDYAATELEHHHHHH,failed
18,MTNIQALFERIAPLYDRLNDQLSFGLHHVWKQMAVDWLELPQGATALDLCCGTGDLTRLLARRVGRQGRVVGLDFAAAPLAIARQRSDHYPQIEWLQGDALAVPFAPQTFQGITIGYGLRNVVDIPQALREMFRLLVPGGRAAILDFSHPQTSALEQFQQWYLQQWVVPTARHYGLAAEYDYLWPSIQAFPTPPTLCALIQQAGFERVKHYPLLGGLMAITVAQKLEHHHHHH,failed
19,MTNKGYFWVVASLVLASAAQVLMKSGMLALPSISMTHWPSLSTLMAGWPVVAVLVGIICYGLSMVCWFMVLRYLPLSRAYPLISLSYAVVYLAAVFLPWLNEPMSLRKNLGVLIILLGVWLVSRDAQATK,failed
20,MTNLGTAKNFWDATLYQDKHSFVWQYGEDLLQLLNPQPGEFILDLGCGTGQLTEKIAQSGAEVLGTDNAATMIEKARQNYPHLHFDVADARNFRVDKPLDAVFSNAMLHWVKEPEAAIASIHQALKSGGRFVAEFGGKGNIKYILEALYNALETLGIHNPQALNPWYFPSIGEYVNILEKQGFDVTYAALFNRPTTLAEGEFGMANWIQMFASAFLVGLTPDQQVQLIRKVEATLQDKLYHQESWTADYRRIRIVSIKAQ,not failed
21,MTNLRKILLIPALIVVSVSSFFSCGVDRWPEYAHLTELDTWMYDIMQQNYLWYQYMPGYDEVNLFQDPATFLSKAKWDKDSYSFVDSVLEAPLPTYGFDYSLVKSQDNDTAYNALITYVIPESPAEKAGLQRGDWIMKVDTSYISKKYETQLLQGTIARELSMGVWKEVEEEPEEGEEVPEEPVMVYKVVPNGVTLDLGAAQSIEDQPVHKYKILTLDNGAKVGYLMYNSFTAGTNNDPEKYNNELRKVSTIFQEANVQATILDLRYNEGGSLDCVQLLATILVPNARMGTPMAYLEYNDKNLDKDATINFDQEVLKTGVNLNQNTLVAITSGTTAGAAEMLLTSLYKEEQAPNIIVMGSASKGQTVATEQFINETYRWSVNPVVCTVYNSDHDAGEDAFVLVPSDKFKISETSINGTTDYSQFLPFGNPKERMLSIAIQTLEGTYPPKDEDKEEETRSTKSIKIEKSVSSPASRRFAGGLRIK,failed
